In patent US9040266B2, “Cell-based systems for production of methyl formate” (The Regents of the University of California, priority 2009, dated 2015):

B1: B. phymatum: methyl halide transferase from Burkholderia phymatum STM815, SEQ ID NO: 4 (protein, listed as Burkholderia phymatum)
chain: MSDKRPSVPPSAPDFENRDPNAPGFWDERFGRGFTPWDQAGVPPAFKAFVERHSPVPVLIPGCGSAYEARWLAEKGWTVRAIDFAPNAVEAARAQLGSHASLVHEADFFTYRPPFDPGWIYERAFLCALPPARRSDWVARMAQLLSPGGLLAGFFFIGATEKGPPFGIERAELDALMSPDFTLVEDEPVDDSIAVFAGRERWLTWRRRGAARG
B2: FB: methyl halide transferase from Flavobacteria bacterium BBFL7, SEQ ID NO: 19 (protein, listed as Flavobacteria bacterium)
chain: MPLNKQYWEDRYKNNSTGWDLGIISTPIKEYVNQLENKNSKILIPGAGNAHEATYLVKNGFKNIFILDIALSPLKFAKQRSKLPEEHLIQQDFFDHKGSYDLIIEQTFFCALEPRFRESYVKKIHMLLRDQGCLIGVLFNFENNLSSPPFGGSINEYLNLFEPYFEIVTMEPCNNSVIERQGKEIFIKLKKKK
B3: O. tauri: methyl halide transferase (unnamed protein product) from Ostreococcus tauri, SEQ ID NO: 14 (protein, listed as Ostreococcus tauri)
chain: MTTSSAPTRHTSMRVALAAPATVTRRLGTYKRVFDRRAMSTRAIDGAVTSNAGDFARQDGSTDWEGMWSRGITKGAAFDCSRTEPAFQNALDAKEIAIGSGRALVPGCGRGYALASLARAGFGDVVGLEISETAKEACEEQLKAESIPETARVEVVVADFFAYDPKEAFDAAYDCTFLCAIDPRRREEWARKHASLIKPGGTLVCLVFPVGDFEGGPPYALTPEIVRELLAPAGFEEIELRETPAEMYARGRLEYLFTWRRRS
B4: AT-2: methyl halide transferase from Arabidopsis thaliana TM2, SEQ ID NO: 10 (protein, listed as Arabidopsis thaliana)
chain: MAEEQQNSDQSNGGNVIPTPEEVATFLHKTVEEGGWEKCWEEEITPWDQGRATPLIVHLVDTSSLPLGRALVPGCGGGHDVVAMASPERFVVGLDISESALAKANETYGSSPKAEYFSFVKEDVFTWRPTELFDLIFDYVFFCAIEPEMRPAWAKSMYELLKPDGELITLMYPITDHVGGPPYKVDVSTFEEVLVPIGFKAVSVEENPHAIPTRQREAGKVEEDQLIPKKEILLFGKSVICVIYKE
B5: Leptospirillum: methyl halide transferase from Leptospirillum sp. Group II UBA, SEQ ID NO: 11 (protein)
chain: MPDKIFWNQRYLDKNTGWDLGQPAPPFVRLVEKGEFGPPGRVLIPGAGRSYEGIFLASRGYDVTCVDFAPQAVREAREAARQAGVKLTVVEEDFFRLDPRTIGVFDYLVEHTCFCAIDPPMRQAYVDQSHALLAPGGLLIGLFYAHGREGGPPWTTTEEEVRGLFGKKFDLLSLGLTDWSVDSRKGEELLGRLRRKNDRIE
modifications: Leptospirillum species, synthetic polypeptide of methyl halide transferase thereof
B6: C. cinerea: methyl halide transferase (hypothetical protein) from Coprinopsis cinerea okayama, SEQ ID NO: 16 (protein)
chain: MADPNLAPEIRAKMQEIFKPDDRHSWDLLWKENITPWDAGDAQPSLIELIEESGLDFARKGRALVPGCGTGYDAVYLASALGLQTIGMDISESAVEAANRYRDSSGVQGADRAIFQKADFFTYKVPDEERFDLIMDHTFFCAIHPSLRPEWGQRMSELIKPGGYLITICFPMIPKVETGPPYYLRPEHYDEVLKETFEKVYDKVPTKSSENHKDKERMLVWKKK
modifications: Synthetic polypeptide of hypothetical protein of coprinopsis cinerea.
B7: C. neoformans JEC21: methyl halide transferase (hypothetical protein) from Cryptococcus neoformans var. neoformans JEC21, SEQ ID NO: 12 (protein)
chain: MAQASGDDNAWEERWAQGRTAFDQSAAHPVFVKFLKSDIARELGVPKSGKALVPGCGRGYDVHLLASTGLDAIGLDLAPTGVEAARRWIGSQPSTSGKADILVQDFFTYDPLEKFDLIYDYTFLCALPPSLRQEWARQTTHLANIAADTNPILITLMYPLPPSAKSGGPPFALSEEIYQELLKEQGWKMVWSEDIEEPTRMVGAPGGEKLAVWKRI
modifications: Cryptococcus neoformans
B8: RB: methyl halide transferase from Robiginitalea bofirmata HTCC2501, SEQ ID NO: 17 (protein, listed as Robiginitalea biformata)
chain: MTDLDRDFWEDRYRAGTDRWDLGGPSPPLTAYIDGLTDQELRILVPGAGRGYEAEYLYRAGFENLTIVDLARRPLDDLRRRLPELPAAALQQTDFFSFRGGPFDLILEHTFFCALPPARRPDYVQAMHRLLVPGGRLAGLFFDFPLTEDGPPFGGSETEYRNRFSSLFHIRKLERARNSIPPRAGTELFFIFEKK
B9: MM: methyl halide transferase from Maricaulis maris MCS10, SEQ ID NO: 18 (protein, listed as Maricaulis maris)
chain: MTHDENRSAFDWEARFIDGNTPWERGALHPAFEAWQHQSAFAAGDRALIPGCGRSPELLALAQAGLAVTGADLSGTAMAWQRKLFADAGQQVELITGDVFDWQPQQALDLVYEQTFLCAIHPRLRTRYEEALARWLKPGGRLYALFMQKPERGGPPFDCALDAMRALFPAERWTWPAEADIQPWPHPQLNGKAELGAVLIRR
B10: O. sativa: methyl halide transferase from Oryza sativa (japonica cultivar-group), SEQ ID NO: 13 (protein, listed as Oryza sativa)
chain: MASAIVDVAGGGRQQALDGSNPAVARLRQLIGGGQESSDGWSRCWEEGVTPWDLGQRTPAVVELVHSGTLPAGDATTVLVPGCGAGYDVVALSGPGRFVVGLDICDTAIQKAKQLSAAAAAAADGGDGSSSFFAFVADDFFTWEPPEPFHLIFDYTFFCALHPSMRPAWAKRMADLLRPDGELITLMYLAEGQEAGPPFNTTVLDYKEVLNPLGLVITSIEDNEVAVEPRKGMEKIARWKRMTKSD
B11: D. aromatica: methyl halide transferase from Dechloromonas aromatica RCB, SEQ ID NO: 15 (protein, listed as Dechloromonas aromatica)
chain: MSETIKPPEQRPEHPDFWCKRFGEGVTPWDAGKVPMAFVDFVGAQTTPLNSLIPGCGSAWEAAHLAELGWPVTALDFSPLAIEKAREVLGDSPVKLVCADFFTFAPRQPLDLIYERAFLCALPRKLWADWGKQVAELLPSGARLAGFFFLCDQPKGPPFGILPAQLDELLRPNFELIEDQPVGDSVPVFAGRERWQVWRRR
B12: VV: methyl halide transferase from Vitis vinifera, SEQ ID NO: 20 (protein, listed as Vitis vinifera)
chain: MASPDNTKPKARSSESVTGQRRGRRPSDRHWPCVGEESGSFYNTIADGERQYQHRIELRASKNKPSSWEEKWQQGLTPWDLGKATPIIEHLHQAGALPNGRTLIPGCGRGYDVVAIACPERFVVGLDISDSAIKKAKESSSSSWNASHFIFLKADFFTWNPTELFDLIIDYTFFCAIEPDMRPAWASRMQQLLKPDGELLTLMFPISDHTGGPPYKVSIADYEKVLHPMRFKAVSIVDNEMAIGSRKKKYPLKPDLSLFGFVDRPKRAYEARSEEFRISDWVCGWMGLCVPSGRISGGVCGLLSGRSLTWAKNLGVSTTQLRMSNNGSSIESNPKVQKLNQIIGSDSAGGWEKSWQQGHTPWDLGKPTPIIQHLHQTGTLPSGKTLVPGCGCGYDVVTIACPERFVVGLDISDSAIKKAKEISDHAGGPPYKVSVADYEEVLHPMGFKAVSIVDNKMAIGPRKGREKLGRWKRTPSKSLL
B13: HH: methyl halide transferase from Halorhodospira halophila SL1, SEQ ID NO: 21 (protein, listed as Halorhodospira halophila)
chain: MSGDPDPRRAPWEARWREGRTGWDRGGVSPTLEAWLSAGVIPGRRVLVPGAGRGYEVEALARRGYKVTAVDIAAEACQQLRDGLDAAGVEARVVQADLLAWQPDTPFDAVYEQTCLCALDPADWPAYEQRLYGWLRPGGVLLALFMQTGASGGPPFHCALPEMATLFDSERWQWPAEPPRQWPHPSGRWEEAVRLLRR

System: methyl bromide and methyl iodide production in E. Coli
Assay: Methyl halide production by heterologous MHTs expressed in E. coli (Example 8, headspace GC/MS)
Assay type: cell-based
Settings: FIG. 7; for methyl bromide production / methyl iodide production: 165 mM NaX, 100 uM IPTG, 1.5 hours
Method: Nineteen methyl halide transferase genes from various organisms were codon-optimized and introduced into E. Coli. Production of methyl bromide and methyl iodide was determined for each. […] Group II UBA; Cryptococcus neoformans var. neoformans JEC21; Oryza sativa (japonica cultivar-group); Ostreococcus tauri; Dechloromonas aromatica RCB; Coprinopsis cinerea okayama; Robiginitalea bofirmata HTCC2501; Maricaulis maris MCS10; Flavobacteria bacterium BBFL7; Vitis vinifera and; halorhodospira halophila SL1.
For each strain a single colony was picked and grown overnight (10-14 hrs) in 20 mL of LB miller in a 30 mL glass test tube with aeration (a loose cap) at 37 C and 250 rpm shaking. The culture was spun down in a swinging bucket centrifuge for 5 min @ 3000×g. The cells were resuspended in 20mL of appropriate media (10 g/L Tryptone, 5 g/L Yeast Extract, 165 mM NaX [where X=CI, Br, I]) containing 100 uM IPTG inducer. The cells were sealed with rubber stoppers and parafilm and grown at 37 C with 250 rpm shaking for 1.5 hours. Cultures were taken to the GC/MS and 100 uL of headspace gas was sampled and loaded onto the column. The method run was VOIGT.m. The number of counts for the appropriate mass (MeCl, MeBr, MeI) were reported. Cells were always grown in the presence of 30 ug/mL chloramphenicol.
Methyl halide production was measured as described in the previous Examples. […] C. neoformans JEC21 gave the best methyl bromide and methyl iodide production. Leptospirillum gave the best methyl iodide production.

| Molecule | methyl halide transferase activity | halide specificity of methyl halide production | other results |
| --- | --- | --- | --- |
| B1 |  |  | methyl bromide production: best |
| B2 | insignificant activity |  |  |
| B3 |  | significant specificity for methyl iodide production |  |
| B4 | insignificant activity |  |  |
| B5 |  |  | methyl iodide production: best |
| B6 |  | significant specificity for methyl iodide production |  |
| B7 |  |  | methyl bromide production: best; methyl iodide production: best |
| B8 | insignificant activity |  |  |
| B9 | insignificant activity |  |  |
| B10 |  | significant specificity for methyl iodide production |  |
| B11 |  | significant specificity for methyl iodide production |  |
| B12 | insignificant activity |  |  |
| B13 | insignificant activity |  |  |
